From article doi:10.1101/2023.02.09.527835 (bioRxiv, 2023)

Target: human complement C3a (human, UniProt P01024 672-748)
Experiment: cryo-EM structure

Sequence of human complement C3a (P01024 672-748): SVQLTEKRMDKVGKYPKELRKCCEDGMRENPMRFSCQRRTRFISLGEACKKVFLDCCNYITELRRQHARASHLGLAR

binding result: binds
B1: human complement C3a receptor (C3aR), full-length, FLAG-M4(2-23)-C3aR construct for cryo-EM (receptor, UniProt P08173 2-23, looked up)
chain: ANFTPVNGSSGNQSVRLVTSSSMASFSAETNSTDLLSQPWNEPPVILSMVILSLTFLLGLPGNGLVLWVAGLKMQRTVNTIWFLHLTLADLLCCLSLPFSLAHLALQGQWPYGRFLCKLIPSIIVLNMFASVFLLTAISLDRCLVVFKPIWCQNHRNVGMACSICGCIWVVAFVMCIPVFVYREIFTTDNHNRCGYKFGLSSSLDYPDFYGDPLENRSLENIVQPPGEMNDRLDPSSFQTNDHPWTVPTVFQPQTFQRPSADSLPRGSARLTSQNLYSNVFKPADVVSPKIPSGFPIEDHETSPLDNSDAFLSTHLKLFPSASSNSFYESELPQGFQDYYNLGQFTDDDQVPTPLVAITITRLVVGFLLPSVIMIACYSFIVFRMQRGRFAKSQSKTFRVAVVVVAVFLVCWTPYHIFGVLSLLTDPETPLGKTLMSWDHVCIALASANSCFNPFLYALLGKDFRKKARQSIQGILEAAFSEELTRSTHCPSNNVISERNSTTV
modifications: alkylated with iodoacetamide
